Where no end group is shown, it is not given here. The star is where a group is joined. Biotin = O=C1N[C@H]2[C@H](CS[C@H]2CCCCC(=O)*)N1
T1: Peptide 2, non-conjugated (GSESTSSMED-C) (human)
T1 construct: With the extra C-terminal Cys
T1 peptide: GSESTSSMEDC

T2: Peptide 1-BSA (MADDYGSEST-C conjugated to BSA) (human)
T2 peptide: MADDYGSESTC(BSA)

T3: Peptide 4-BSA (SMEDYVNFNF-C conjugated to BSA) (human)
T3 peptide: SMEDYVNFNFC(BSA)

T4: Peptide 2-BSA (GSESTSSMED-C conjugated to BSA) (human)
T4 peptide: GSESTSSMEDC(BSA)

T5: Peptide 3, non-conjugated (SSMEDYVNFN-C) (human)
T5 construct: With the extra C-terminal Cys
T5 peptide: SSMEDYVNFNC

T6: Peptide 1, non-conjugated (MADDYGSEST-C) (human)
T6 construct: With the extra C-terminal Cys
T6 peptide: MADDYGSESTC

T7: Peptide 4, non-conjugated (SMEDYVNFNF-C) (human)
T7 construct: With the extra C-terminal Cys
T7 peptide: SMEDYVNFNFC

T8: Peptide 3-BSA (SSMEDYVNFN-C conjugated to BSA) (human)
T8 peptide: SSMEDYVNFNC(BSA)

T9: antigen peptide-BSA (immunisation peptide #1 MADDYGSESTSSMEDYVNFNF-C conjugated to BSA) (human, extra C-terminal Cys conjugated to BSA)
T9 construct: also called Positive control antigen peptide-BSA; MADDY peptide
T9 peptide: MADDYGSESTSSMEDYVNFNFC

T10: human CCR9 on cells (MOLT-4, SupT1) (human, UniProt P51686 1-369)
T10 construct: whole, on cells; also called C-C chemokine receptor type 9; CDw199
T10 sequence (looked up): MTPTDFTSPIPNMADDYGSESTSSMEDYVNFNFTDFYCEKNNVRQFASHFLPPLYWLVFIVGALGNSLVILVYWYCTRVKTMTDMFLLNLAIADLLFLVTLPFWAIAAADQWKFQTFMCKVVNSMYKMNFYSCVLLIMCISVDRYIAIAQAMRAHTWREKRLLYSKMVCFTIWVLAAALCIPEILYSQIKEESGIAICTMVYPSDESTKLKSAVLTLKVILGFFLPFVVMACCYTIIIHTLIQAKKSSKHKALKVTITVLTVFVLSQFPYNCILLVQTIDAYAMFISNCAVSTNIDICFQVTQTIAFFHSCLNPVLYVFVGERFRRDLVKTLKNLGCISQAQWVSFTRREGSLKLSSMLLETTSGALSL

T11: biotin-peptide TSSMEDYVNF (human)
T11 peptide: Biotin-TSSMEDYVNF

T12: biotin-peptide SMEDYVNFNF (human)
T12 peptide: Biotin-SMEDYVNFNF

T13: biotin-peptide MEDYVNFNFT (human)
T13 peptide: Biotin-MEDYVNFNFT

T14: biotin-peptide SSMEDYVNFN (human)
T14 peptide: Biotin-SSMEDYVNFN


Experiments:
[1] = target: T1, Peptide 2, non-conjugated (GSESTSSMED-C); assay: ELISA; Ab 0.0625 ug/mL; repI
Procedure: (§1) In brief, plates with each non-conjugated peptide (50 μg/mL) or BSA-conjugated peptide (5 μg/mL) were coated in 0.58M carbonate-bicarbonate buffer pH9.5, 100 μL/well, at 4° C. […] After washing, wells were incubated with the 3, 3′,5,5′-Tetramethylbenzidine (TMB) HRP substrate and reactions were stopped with 2M HCl and OD450 was recorded.

[2] = target: T2, Peptide 1-BSA (MADDYGSEST-C conjugated …); assay: ELISA; Ab 0.0625 ug/mL; repI
Procedure: as §1

[3] = target: T3, Peptide 4-BSA (SMEDYVNFNF-C conjugated …); assay: ELISA; Ab 0.0625 ug/mL; repI
Procedure: as §1

[4] = target: T4, Peptide 2-BSA (GSESTSSMED-C conjugated …); assay: ELISA; Ab 0.0625 ug/mL; repI
Procedure: as §1

[5] = target: T5, Peptide 3, non-conjugated (SSMEDYVNFN-C); assay: ELISA; Ab 0.0625 ug/mL; repI
Procedure: as §1

[6] = target: T6, Peptide 1, non-conjugated (MADDYGSEST-C); assay: ELISA; Ab 0.0625 ug/mL; repI
Procedure: as §1

[7] = target: T15, BSA (negative control coating) (bovine, UniProt P02769 25-607); assay: ELISA; Ab 0.0625 ug/mL; repI
T15 construct: also called Negative control BSA
Procedure: as §1

[8] = target: T7, Peptide 4, non-conjugated (SMEDYVNFNF-C); assay: ELISA; Ab 0.0625 ug/mL; repI
Procedure: as §1

[9] = target: T8, Peptide 3-BSA (SSMEDYVNFN-C conjugated …); assay: ELISA; Ab 0.0625 ug/mL; repI
Procedure: as §1

[10] = target: T9, antigen peptide-BSA (immunisation …); assay: ELISA; Ab 0.0625 ug/mL; repI
Procedure: as §1

[11] = target: T3, Peptide 4-BSA (SMEDYVNFNF-C conjugated …); assay: ELISA; Ab 0.25 ug/mL; repI
Procedure: as §1

[12] = target: T4, Peptide 2-BSA (GSESTSSMED-C conjugated …); assay: ELISA; Ab 0.25 ug/mL; repI
Procedure: as §1

[13] = target: T9, antigen peptide-BSA (immunisation …); assay: ELISA; Ab 0.25 ug/mL; repI
Procedure: as §1

[14] = target: T1, Peptide 2, non-conjugated (GSESTSSMED-C); assay: ELISA, non-conjugated peptide coated
Procedure: as §1

[15] = target: T6, Peptide 1, non-conjugated (MADDYGSEST-C); assay: ELISA, non-conjugated peptide coated
Procedure: as §1

[16] = target: T10, human CCR9 on cells (MOLT-4, SupT1); assay: flow cytometry on 300.19 cells overexpressing human CCR9 against CCR9-negative 300.19 WT cells, detection with anti-mouse-IgG(H+L) A647 [Cont.) B]
[17] = target: T11, biotin-peptide TSSMEDYVNF; assay: ELISA biotin-peptide; scFv 1.25 ug/mL; repII
Procedure: (§2) The peptides were synthesized naked or with a N-terminal Biotin modification with a purity of >98%. All four scFvs were verified by ELISA that can be detected with anti-His antibodies. ELISA was performed for scFv-peptide binding validation. Briefly, naked peptides were coated (50 μg/mL) in 0.58M carbonate-bicarbonate buffer pH9.5, 100 μL/well, 4° C. O/N. Then after blocking (3% BSA-PBS, 300 μL/well 37° C. 1.5 h) and washing (PBS+Tween-20 0.05% v/v (0.05% PBST), wells were incubated with each purified scFv antibody at concentration of 1 μg/mL in PBS at 37° C. 1 h. After washing (0.05% PBST), wells were incubated with secondary antibodies (goat anti-His IgG-HRP) in PBS, 37° C., 30 min. After washing, and incubation with TMB substrate, reactions were stopped with 2M HCl and reading was quantified at OD450.
(§3) ELISA with biotin-conjugated peptides (5 μg/mL) was performed very similar to described above with minor modifications.
(§4) A full curve ELISA was performed for each positive scFv/biotin-peptide pair in order to confirm previous results. Tables 15-17 show ELISA results of the dose-dependent full curve for each positive peptide with scFv “CCR9_HUM”, “Comp-2” and “Comp-3”, respectively.

[18] = target: T12, biotin-peptide SMEDYVNFNF; assay: ELISA biotin-peptide; scFv 1.25 ug/mL; repII
Procedure: as §2, §3, §4

[19] = target: T13, biotin-peptide MEDYVNFNFT; assay: ELISA biotin-peptide; scFv 1.25 ug/mL; repII
Procedure: as §2, §3, §4

[20] = target: T14, biotin-peptide SSMEDYVNFN; assay: ELISA biotin-peptide; scFv 1.25 ug/mL; repII
Procedure: as §2, §3, §4

T15 sequence (P02769 25-607 limits assumed): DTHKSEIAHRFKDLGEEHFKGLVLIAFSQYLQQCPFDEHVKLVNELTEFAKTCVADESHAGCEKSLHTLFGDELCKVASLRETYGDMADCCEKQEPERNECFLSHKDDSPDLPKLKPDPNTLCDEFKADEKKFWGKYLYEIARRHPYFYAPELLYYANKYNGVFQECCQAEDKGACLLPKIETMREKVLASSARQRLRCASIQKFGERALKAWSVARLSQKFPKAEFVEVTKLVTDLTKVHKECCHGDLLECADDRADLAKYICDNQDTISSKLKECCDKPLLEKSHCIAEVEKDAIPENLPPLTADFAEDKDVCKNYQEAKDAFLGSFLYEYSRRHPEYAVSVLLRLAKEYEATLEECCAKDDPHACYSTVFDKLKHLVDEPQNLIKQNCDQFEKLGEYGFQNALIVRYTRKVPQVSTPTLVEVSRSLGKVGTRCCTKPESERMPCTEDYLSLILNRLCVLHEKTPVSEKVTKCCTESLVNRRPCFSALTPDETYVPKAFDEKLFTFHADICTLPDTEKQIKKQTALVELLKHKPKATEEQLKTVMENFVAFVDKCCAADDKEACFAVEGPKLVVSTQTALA

| OD450 [1] | OD450 [2] | OD450 [3] | OD450 [4] | OD450 [5] | OD450 [6] | OD450 [7] | OD450 [8] | OD450 [9] | OD450 [10] | OD450 [11] | OD450 [12] | OD450 [13] | binding result [14] | binding result [15] | binding result [16] | OD450 [17] | OD450 [18] | OD450 [19] | OD450 [20] | Binder |
| --- | --- | --- | --- | --- | --- | --- | --- | --- | --- | --- | --- | --- | --- | --- | --- | --- | --- | --- | --- | --- |
| 0.01 OD | 0.01 OD | 1.98 OD | 0.01 OD | 1.83 OD | 0.01 OD | 0.01 OD | 1.14 OD | 1.88 OD | 1.84 OD | 2.46 OD | 0.02 OD | 2.29 OD | no binding (tested: 1 ug/mL) | no binding (tested: 1 ug/mL) | binds |  |  |  |  | anti-CCR9 antibody clone 115 (murine, from hybridoma #115) (antibody, V domains shown, Mouse IgG1) VH: QVQLKQSGPELVKPGTSVRVSCTASGYSFTDYIIYWVKQSHGRSLEWIGYIDPNNYNTRYSQKFKGKATLTVDKSSTSAFMHLNSLTSDDSAVYYCARDVYWGQGTTLTVSS VL: DVVMTQTPLSLTVSLGDQASISCRSSQSLVHSNGKTYLQWYLQKPGQSPKLLIYKVSNRFSGVPDRFSGSGSGTDFTLKISRVEAEDLGVYFCAQSTHVWTFGGGTKLEIKR |
|  |  |  |  |  |  |  |  |  |  |  |  |  |  |  |  | 1.23 OD | 1.72 OD | 1.49 OD | 1.77 OD | CCR9_HUM2 scFv (humanized anti-CCR9 scFv, SEQ ID NO: 17 with C-terminal 6xHis tag) (scFv) scFv: QVQLVQSGAEVKKPGASVKVSCTASGYSFTDYIIYWVKQAHGQSLEWMGYIDPNNYNTRYSQKFQGKVTITVDKSSTSAYMELNSLTSDDTAVYYCARDVYWGQGTTVTVSSGGGGSGGGGSGGGGSGGGGSDVVMTQTPLSLSVTPGQPASISCRSSQSLVHSNGKTYLQWYLQKPGQSPKLLIYKVSNRFSGVPDRFSGSGSGTDFTLKISRVEAEDVGVYFCAQSTHVWTFGGGTKVEIKRAHHHHHH |

Source: patent US20260232732A1 (FUNDACI INSTITUT DE RECERCA CONTRA LA LEUC MIA JOSEP …, published 2026)
